The values that follow come from article PMC10209884, “Hypochlorite-induced oxidation promotes aggregation and reduces toxicity of amyloid beta 1-42” (Redox Biology, 2023).

Data set [1] is described as follows: Size exclusion chromatography of Aβ1-42 assemblies. The class given is physicochemical. The settings on record: 66.67 μM Aβ1-42, PBS, 1 h ambient room temperature. An excerpt:
The absorbance at 280 nm was used to monitor the elution of the peptide.

Data set [2] is described as follows: Filter trap assay (insoluble Aβ1-42 retained on cellulose acetate membrane). The settings on record: co-incubation with 1.6-fold molar excess of NaOCl vs Aβ1-42 in PBS alone; Aβ1-42 55 μM, PBS pH 7.4, overnight, ambient room temperature; 0.22 μm cellulose acetate membrane, WO2 blot densitometry; mean of n = 3. Type of data set: physicochemical. Here is the method:
(§1) When incubations differed from these standard conditions for a specific experiment, the details are provided in the relevant figure legend and in the relevant section of the Methods section.
Following treatment with NaOCl, Aβ1-42 samples were subjected to filter trap assay in order to estimate the amount of peptide present in the insoluble fraction. […] Following extraction of the soluble fraction using a vacuum, the wells of the apparatus were washed three times using 0.01% (v/v) Triton-X in PBS. […] Blots were imaged after exposure to enhanced chemiluminescence reagent (Bio-Rad, NSW, AUS) using a ChemiDoc MP Imaging system (Bio-Rad, NSW, AUS).

Data set [3] can be described thus: Western blot analysis of SDS-resistant Aβ1-42 assemblies. Type of data set: physicochemical. The settings on record: higher concentrations of NaOCl, PBS overnight at ambient room temperature; 10-20% tris-tricine gel, WO2 Western blot. Here is the method: as §1
Gels were stained using Instant Blue stain (Abcam; Melbourne, VIC, AUS) and imaged with Geldoc Go imager (Bio-Rad, NSW, AUS).
Blots were imaged after exposure to enhanced chemiluminescence reagent (Bio-Rad, NSW, AUS) using a ChemiDoc MP Imaging system (Bio-Rad, NSW, AUS).

Data set [4] relates to SH-SY5Y cells. Description: Incucyte endocytosis assay (colocalization with Lysotracker Red). The settings on record: Aβ1-42-Hilyte-488 (50 μM) pre-treated with 160 μM NaOCl, compared to copper/H2O2 treatment, Ham's F12, 4 °C, 4 days; 1 μM on cells, 1 h; n = 27 areas from three wells. The class given is cell-based, human. Here is the method: Images of the cells were taken after 1 h using an Incucyte SX5 (Sartorius).
Aβ1-42-Hilyte-488 (50 μM) was incubated with 160 μM NaOCl or […]/H2O2 in Ham's/F12 or Ham's/F12 alone for 4 days at 4 °C. SH-SY5Y cells seeded at 15,000 cells/well in a 96-well plate were then treated with 1 μM of Aβ1-42-Hilyte-488 in NB27 containing 100 nM Lysotracker Red DND-99. Images of cells (9 images per well) were taken after 1 h using an Incucyte SX5 (Sartorius). Colocalization of Aβ1-42-Hilyte-488 with Lysotracker Red was calculated using Incucyte live cell analysis software.

Data set [5] relates to cortical neurons. The settings on record: in vitro, cortical neurons from rodents; cited from earlier work. An excerpt: The exact concentration of hypochlorite generated in cerebral spinal fluid is not known, but myeloperoxidase has been measured in human cerebrospinal fluid (CSF) from cognitively normal donors at 101 ± 43 pg/ml with corresponding activity of 0.0292 ± 0.001 mU [34]. Although myeloperoxidase activity is much less in CSF than in human serum, human serum also contains high levels of albumin which acts as an antioxidant. […] Considering that 3-chl ...

In data set [6] the test system is SH-SY5Y neuroblastoma cells. Kind of data set: Incucyte Cytotox Green cell death assay. Type of data set: cell-based, human. The settings on record: Aβ1-42 (100 μM) pre-incubated with 80 μM NaOCl in Ham's/F12 2 h ambient room temperature; 15 μM Aβ1-42 on cells; vs Aβ1-42 without NaOCl. Here is the method: Cell viability was also measured in real-time using Cytotox Green reagent (Essen Bioscience) in an Incucyte SX5 (Sartorius, South VIC, AUS), according to the manufacturer's instructions.

Data set [7] can be described thus: Electrospray mass spectrometry of Aβ1-42 oxidation by NaOCl. Type of data set: physicochemical. The settings on record: 5-fold molar excess of NaOCl; 31 μM Aβ1-42, PBS, 1 h on ice/4 °C, quenched with 20 mM L-Met; electrospray MS. Here is the method: Aβ1–42 (31 μM) was incubated with NaOCl (0–360 μM) in PBS on ice for 1 h and the reaction was quenched using L-Met (20 mM). Electrospray mass spectrometry was performed on a Xevo G2 mass spectrometer and data was analyzed using MassLynx software (Waters UK, Elstree, Hertfordshire, UK) at the Department of Chemistry, University of Cambridge.

A short description of data set [8]: Thioflavin T (ThT) assay of amyloid fibril formation. Type of data set: physicochemical. Here is the method:
Aβ1–42 (4–5 μM) was incubated at 28 °C with shaking in PBS ± NaOCl containing ThT (20–25 μM). The ThT fluorescence of the samples was continuously monitored using a Clariostar platereader with excitation and emission wavelengths of 440 nm and 480 nm (slit widths of 10 nm), respectively. The data shown is the mean fluorescence of triplicate samples and is adjusted for the background fluorescence. In additional experiments, Aβ1–42 was pre-treated with NaOCl in PBS for 1 h at ambient room temperature before being supplemented with excess L-Met (20 mM). A control sample of Aβ1–42 was incubated in the absence of NaOCl as described previously and supplemented with L-Met. Aβ1–42 preparations were then subjected to a ThT assay incubated at 37 °C under quiescent conditions, and monitored as described above. Half-time (t1/2) values are the time to reach half of the maximum ThT fluorescence, calculated after normalising the aggregation data for 3 independent assays.

A short description of data set [9]: Transmission electron microscopy of ThT assay end-point samples. Type of data set: physicochemical. The settings on record: end-point samples of ThT assay after NaOCl pre-treatment; 2% uranyl acetate stain. Here is the method:
Samples from the ThT kinetics assay (endpoints) were prepared for TEM on 400-mesh carbon film coated copper grids (EM resolutions Ltd.) and stained with 2% (w/v) uranyl acetate. Grids were imaged with a FEI Tecnai G2 transmission electron microscope (Cambridge Advanced Imaging Centre, University of Cambridge) and subsequent images analyzed with SIS Megaview II Image Capture system (Olympus).

Data set [10] can be described thus: BisANS assay of surface exposed hydrophobicity. Type of data set: physicochemical. The settings on record: NaOCl at sub-stoichiometric concentration vs Aβ1-42 in PBS alone, overnight, ambient room temperature, 10 μM Aβ1-42, 20 μM bisANS, 5 min, 25 °C, Ex 360 nm, Em 502 nm, mean of n = 10. Here is the method:
as §1
Aβ1-42 was treated with NaOCl and the solutions supplemented with excess L-Met. […] BisANS fluorescence (Excitation 360 nm, Emission 502 nm) was then measured using a Clariostar platereader (BMG Labtech). The data shown is the average BisANS fluorescence of n = 10 samples and is adjusted for background fluorescence.

With “NaOCl-treated Aβ1-42: Aβ1-42 pre-incubated with sodium hypochlorite; singly oxidised species in heterogeneous assemblies”, in data set [1] (2-fold molar excess of NaOCl (133.33 μM), Superdex 75 Increase 3.2/300, A280, ≥100 kDa = exclusion limit), the “SEC approximate molecular masses of predominate peaks” value was ≥ 100 kDa. The “reduction in insoluble Aβ1-42 detected by filter trap assay” value in data set [2] stood at 95%. Besides, the “size of higher order SDS-resistant Aβ1-42 assemblies” value in data set [3] was ~150 kDa. Further, the “internalisation to lysosomes (colocalization area of Aβ1-42-Hilyte-488 and Lysotracker Red)” value in data set [4] is “preferentially internalise”.
Consider `[Na+].[O-]Cl` [hypochlorite, sodium hypochlorite], for which, in [5], the “hypochlorite concentration at which neurons are resistant to cell death” value is listed as “up to 200 μM”.
Turning to amyloid beta peptide 1–42 [Aβ1-42], the “SEC apparent size of the majority of the peptide (monomer)” value in data set [1] (no NaOCl, Superdex 75 Increase 3.2/300, 0.05 ml/min, A280) is 4.5 kDa. The “cell death after 72 h (green object count)” value in data set [6] is listed as “approximately halved”. In addition, the “fraction of the peptide oxidised (singly oxidised species, 4530 Da)” value in data set [7] is recorded as “around half”. Further, the “amyloid-associated ThT fluorescence over a 7-hr time course” value in data set [8] (co-incubation with 2-fold molar excess of NaOCl, 5 μM Aβ1-42, 25 μM ThT, PBS, 28 °C, orbital shaking, mean of n = 4) is “significantly suppress”. For the same compound, the “increase in amyloid-associated ThT fluorescence (half-time t1/2)” value in [8] (pre-treatment with 1.6-fold molar excess of NaOCl in PBS 1 h RT, quenched with excess L-Met, 4 μM Aβ1-42, 25 μM ThT, 37 °C, mean of n = 3) is recorded as “significantly delayed”. The “amyloid-associated ThT fluorescence over the 15 h of the assay” value in data set [8] (pre-treatment with 3.2-fold molar excess of NaOCl in PBS 1 h RT, quenched with excess L-Met, 4 μM Aβ1-42, 25 μM ThT, 37 °C, mean of n = 3) is “prevented”. Also, in [9], the “formation of amyloid fibrils by TEM” value is recorded as “markedly reduced”. In addition, in data set [10], the “BisANS fluorescence (surface exposed hydrophobicity)” value is recorded as “substantial decrease”.
